No end group written: not given here.
Biological target: T1, human GLP-1 receptor (Homo sapiens, UniProt P43220)
T1 construct: expressed in transfected cells; host or cells: HEK-293 Aurora CRE-BLAM cells
Experiment: In vitro potency, CRE-BLAM fluorescence assay
Format: cell-based
Conditions: HEK-293 Aurora CRE-BLAM cells expressing the human GLP-1 receptor; 5 hours incubation; control Val^8-GLP-1(7-37)OH
Procedure: “In vitro potency” as used herein is the measure of the ability of a peptide to activate the GLP-1 receptor in a cell-based assay. In vitro potency is expressed as the “EC50” which is the effective concentration of compound that results in 50% activity in a single dose-response experiment. For the purposes of the present invention, in vitro potency is determined using a fluorescence assay that employs HEK-293 Aurora CRE-BLAM cells that stably express the human GLP-1 receptor. These HEK-293 cells have stably integrated a DNA vector having a cAMP response element (CRE) driving expression of the β-lactamase (BLAM) gene. The interaction of a GLP-1 agonist with the receptor initiates a signal that results in activation of the cAMP response element and subsequent expression of β-lactamase. The β-lactamase CCF2/AM substrate that emits fluorescence when it is cleaved by β-lactamase (Aurora Biosciences Corp.) can then be added to cells that have been exposed to a specific amount of GLP-1 agonist to provide a measure of GLP-1 agonist potency. […]
HEK-293 Aurora CRE-BLAM cells expressing the human GLP-1 receptor are seeded at 20,000 to 40,000 cells/well/100 μl into a 96 well black clear bottom plate. […] Generally, fourteen dilutions containing from […] to 30 nanomolar GLP-1 compound were used to generate a dose response curve from which EC50 values could be determined. […]

T1 sequence (P43220 24-463): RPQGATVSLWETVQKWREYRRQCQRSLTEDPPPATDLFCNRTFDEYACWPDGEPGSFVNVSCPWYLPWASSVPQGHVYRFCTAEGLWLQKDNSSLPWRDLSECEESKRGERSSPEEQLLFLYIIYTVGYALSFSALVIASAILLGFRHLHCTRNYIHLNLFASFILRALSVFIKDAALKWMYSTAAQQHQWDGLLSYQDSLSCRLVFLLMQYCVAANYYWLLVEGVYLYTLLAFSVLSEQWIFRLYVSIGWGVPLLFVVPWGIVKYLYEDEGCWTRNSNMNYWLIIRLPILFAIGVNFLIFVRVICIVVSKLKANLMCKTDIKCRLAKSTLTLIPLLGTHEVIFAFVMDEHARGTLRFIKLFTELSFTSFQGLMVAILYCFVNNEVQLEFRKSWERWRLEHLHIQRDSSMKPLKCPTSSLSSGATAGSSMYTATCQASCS

## GLP-1 compound-HSA conjugate of Example 3: Human serum albumin conjugate of the lysine-modified GLP-1 compound SEQ ID NO:22 of Example 3 (HVEGTFTSDVSSYLEEQAAKEFIAWLIKGRGK(3‑(2-pyridyldithio)propanamide)-NH2; also: conjugated to human serum albumin)
  EC50 values compared with Val^8-GLP-1(7-37)OH: about the same as the activity of Val^8-GLP-1(7-37)OH

From patent US20060252916A1, “Modified glucagon-like peptide-1 analogs” (ELI LILLY AND COMPANY, priority 2002, published 2006)
